The target of assay [1] is SA-B3/OmpA fusion protein (E. coli OmpA with streptavidin binding ligand peptide SA-B3 inserted) (Escherichia coli). The assay is described as follows: magnetic separation (µMACS column) of a mixed E. coli Top10 culture with streptavidin-coated iron nanoparticles; input mix was about 47% OmpA+/SA-B3+ and 53% OmpA+LUX+; counted as CFU on plates.
For assay [2] the target is unchanged. The assay can be described thus: magnetic separation (µMACS column) of a mixed E. coli Top10 culture with streptavidin-coated iron nanoparticles; counted as CFU on plates.

SA-B3/OmpA fusion protein (E. coli OmpA with streptavidin binding ligand peptide SA-B3 inserted) (Escherichia coli), sequence (chain, as listed by the source limits assumed): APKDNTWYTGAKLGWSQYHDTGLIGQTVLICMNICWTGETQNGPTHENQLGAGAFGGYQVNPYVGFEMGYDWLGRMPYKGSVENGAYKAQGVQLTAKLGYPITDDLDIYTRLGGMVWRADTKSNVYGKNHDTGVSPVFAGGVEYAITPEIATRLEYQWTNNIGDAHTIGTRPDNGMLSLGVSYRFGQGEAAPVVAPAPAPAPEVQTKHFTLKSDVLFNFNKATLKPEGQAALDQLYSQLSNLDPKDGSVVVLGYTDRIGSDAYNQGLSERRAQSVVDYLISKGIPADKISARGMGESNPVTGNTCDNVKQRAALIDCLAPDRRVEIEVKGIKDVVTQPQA

For the substance “Streptavidin-coated iron-nanoparticles (from UniProt P22629 37-163)”, the proportion of bacteria expressing SA-B3 after magnetic separation in assay [1] amounted to 92%. The substance further registered a proportion of SA-B3-expressing bacteria lost on the columns and while washing in assay [2] of 7%.

These data come from patent publication US20080193373A1.
